T1: MBD3-GFP (UniProt O95983 1-291)
T1 sequence: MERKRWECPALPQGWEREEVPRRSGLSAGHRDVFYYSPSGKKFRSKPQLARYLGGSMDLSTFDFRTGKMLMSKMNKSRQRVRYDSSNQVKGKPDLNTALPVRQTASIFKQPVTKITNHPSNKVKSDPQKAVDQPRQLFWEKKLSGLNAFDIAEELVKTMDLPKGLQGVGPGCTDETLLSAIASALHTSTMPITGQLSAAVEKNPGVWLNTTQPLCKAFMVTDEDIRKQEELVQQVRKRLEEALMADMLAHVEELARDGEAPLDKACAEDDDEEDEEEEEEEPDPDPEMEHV


Target: T1, MBD3-GFP
Test: affinity purification with mass spectrometry

stoichiometry N	Binder
~0.01 relative to MBD3	ZMYND8 (natural protein) MDISTRSKDPGSAERTAQKRKFPSPPHSSNGHSPQDTSTSPIKKKKKPGLLNSNNKEQSELRHGPFYYMKQPLTTDPVDVVPQDGRNDFYCWVCHREGQVLCCELCPRVYHAKCLRLTSEPEGDWFCPECEKITVAECIETQSKAMTMLTIEQLSYLLKFAIQKMKQPGTDAFQKPVPLEQHPDYAEYIFHPMDLCTLEKNAKKKMYGCTEAFLADAKWILHNCIIYNGGNHKLTQIAKVVIKICEHEMNEIEVCPECYLAACQKRDNWFCEPCSNPHPLVWAKLKGFPFWPAKALRDKDGQVDARFFGQHDRAWVPINNCYLMSKEIPFSVKKTKSIFNSAMQEMEVYVENIRRKFGVFNYSPFRTPYTPNSQYQMLLDPTNPSAGTAKIDKQEKVKLNFDMTASPKILMSKPVLSGGTGRRISLSDMPRSPMSTNSSVHTGSDVEQDAEKKATSSHFSASEESMDFLDKSTASPASTKTGQAGSLSGSPKPFSPQLSAPITTKTDKTSTTGSILNLNLDRSKAEMDLKELSESVQQQSTPVPLISPKRQIRSRFQLNLDKTIESCKAQLGINEISEDVYTAVEHSDSEDSEKSDSSDSEYISDDEQKSKNEPEDTEDKEGCQMDKEPSAVKKKPKPTNPVEIKEELKSTSPASEKADPGAVKDKASPEPEKDFSEKAKPSPHPIKDKLKGKDETDSPTVHLGLDSDSESELVIDLGEDHSGREGRKNKKEPKEPSPKQDVVGKTPPSTTVGSHSPPETPVLTRSSAQTSAAGATATTSTSSTVTVTAPAPAATGSPVKKQRPLLPKETAPAVQRVVWNSSSKFQTSSQKWHMQKMQRQQQQQQQQNQQQQPQSSQGTRYQTRQAVKAVQQKEITQSPSTSTITLVTSTQSSPLVTSSGSMSTLVSSVNADLPIATASADVAADIAKYTSKMMDAIKGTMTEIYNDLSKNTTGSTIAEIRRLRIEIEKLQWLHQQELSEMKHNLELTMAEMRQSLEQERDRLIAEVKKQLELEKQQAVDETKKKQWCANCKKEAIFYCCWNTSYCDYPCQQAHWPEHMKSCTQSATAPQQEADAEVNTETLNKSSQGSSSSTQSAPSETASASKEKETSAEKSKESGSTLDLSGSRETPSSILLGSNQGSDHSRSNKSSWSSSDEKRGSTRSDHNTSTSTKSLLPKESRLDTFWD
~0.01 relative to MBD3	ZNF592 (natural protein) MGDMKTPDFDDLLAAFDIPDPTSLDAKEAIQTPSEENESPLKPPGICMDESVSLSHSGSAPDVPAVSVIVKNTSRQESFEAEKDHITPSLLHNGFRGSDLPPDPHNCGKFDSTFMNGDSARSFPGKLEPPKSEPLPTFNQFSPISSPEPEDPIKDNGFGIKPKHSDSYFPPPLGCGAVGGPVLEALAKFPVPELHMFDHFCKKEPKPEPLPLGSQQEHEQSGQNTVEPHKDPDATRFFGEALEFNSHPSNSIGESKGLARELGTCSSVPPRQRLKPAHSKLSSCVAALVALQAKRVASVTKEDQPGHTKDLSGPTKESSKGSPKMPKSPKSPRSPLEATRKSIKPSDSPRSICSDSSSKGSPSVAASSPPAIPKVRIKTIKTSSGEIKRTVTRILPDPDDPSKSPVGSPLGSAIAEAPSEMPGDEVPVEEHFPEAGTNSGSPQGARKGDESMTKASDSSSPSCSSGPRVPKGAAPGSQTGKKQQSTALQASTLAPANLLPKAVHLANLNLVPHSVAASVTAKSSVQRRSQPQLTQMSVPLVHQVKKAAPLIVEVFNKVLHSSNPVPLYAPNLSPPADSRIHVPASGYCCLECGDAFALEKSLSQHYGRRSVHIEVLCTLCSKTLLFFNKCSLLRHARDHKSKGLVMQCSQLLVKPISADQMFVSAPVNSTAPAAPAPSSSPKHGLTSGSASPPPPALPLYPDPVRLIRYSIKCLECHKQMRDYMVLAAHFQRTTEETEGLTCQVCQMLLPNQCSFCAHQRIHAHKSPYCCPECGVLCRSAYFQTHVKENCLHYARKVGYRCIHCGVVHLTLALLKSHIQERHCQVFHKCAFCPMAFKTASSTADHSATQHPTQPHRPSQLIYKCSCEMVFNKKRHIQQHFYQNVSKTQVGVFKCPECPLLFVQKPELMQHVKSTHGVPRNVDELSSLQSSADTSSSRPGSRVPTEPPATSVAARSSSLPSGRWGRPEAHRRVEARPRLRNTGWTCQECQEWVPDRESYVSHMKKSHGRTLKRYPCRQCEQSFHTPNSLRKHIRNNHDTVKKFYTCGYCTEDSPSFPRPSLLESHISLMHGIRNPDLSQTSKVKPPGGHSPQVNHLKRPVSGVGDAPGTSNGATVSSTKRHKSLFQCAKCSFATDSGLEFQSHIPQHQVDSSTAQCLLCGLCYTSASSLSRHLFIVHKVRDQEEEEEEEAAAAEMAVEVAEPEEGSGEEVPMETRENGLEECAGEPLSADPEARRLLGPAPEDDGGHNDHSQPQASQDQDSHTLSPQV
